Assay results reported in patent US20210206856A1 (PANDION OPERATIONS, published 2021).
Residue numbers refer to the chain shown, from its start.

T1: human MAdCAM expressed on cells (human, UniProt Q13477 19-382)
T1 construct: whole, on cells; also called MADCAM1
T1 sequence (looked up): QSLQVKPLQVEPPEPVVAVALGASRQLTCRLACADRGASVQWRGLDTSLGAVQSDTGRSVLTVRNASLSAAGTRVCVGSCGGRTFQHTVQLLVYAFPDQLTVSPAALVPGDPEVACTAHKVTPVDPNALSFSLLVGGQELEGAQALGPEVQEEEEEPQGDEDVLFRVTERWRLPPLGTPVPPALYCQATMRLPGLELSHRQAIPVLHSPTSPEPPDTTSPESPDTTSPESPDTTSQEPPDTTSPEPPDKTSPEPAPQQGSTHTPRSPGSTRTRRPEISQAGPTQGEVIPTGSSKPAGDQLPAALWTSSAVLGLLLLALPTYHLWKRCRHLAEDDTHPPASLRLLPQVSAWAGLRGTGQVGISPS

T2: mouse MAdCAM expressed on cells (mouse, UniProt Q61826 22-405)
T2 construct: whole, on cells
T2 sequence (looked up): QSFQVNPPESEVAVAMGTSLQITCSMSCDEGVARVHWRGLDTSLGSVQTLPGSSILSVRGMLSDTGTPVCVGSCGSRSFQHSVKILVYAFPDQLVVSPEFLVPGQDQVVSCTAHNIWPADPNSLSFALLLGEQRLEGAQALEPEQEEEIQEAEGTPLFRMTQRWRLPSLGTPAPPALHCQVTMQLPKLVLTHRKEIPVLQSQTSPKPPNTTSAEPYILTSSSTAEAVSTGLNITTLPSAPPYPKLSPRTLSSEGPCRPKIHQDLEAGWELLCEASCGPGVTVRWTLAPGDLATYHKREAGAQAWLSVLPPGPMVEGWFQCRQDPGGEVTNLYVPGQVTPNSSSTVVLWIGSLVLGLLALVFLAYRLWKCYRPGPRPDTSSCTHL

B1: MAdCAM Antibody Table 1 Clone 60 (scFv)
scFv: EVQLLESGGGLVQPGGSLRLSCAASGFTFDDYTMHWVRQAPGKGLEWVSDISGSGGSTYYADSVKGRFTISRDNSKNTLYLQMNSLRAEDTAVYYCAKDVVVAGTPLHFDYWGQGTLVTVSSGGGGSGGGGSGGGGSGGGGSDIQMTQSPSSLSASVGDRVTITCQASQDISNYLNWYQQKPGKAPKLLIYAASYLQSGVPSRFSGSGSGTDFTLTISSLQPEDFATYYCQQAHNYPITFGQGTRLEIK
B2: MAdCAM Antibody Table 1 Clone 53 (scFv)
scFv: QVQLVQSGAEVKKPGASVKVSCKASGYTFTSYDINWVRQAPGQGLEWMGWMNPNSGNTGYAQKFQGRVTMTRDTSTSTVYMELSSLRSEDTAVYYCAKDSDYSNLLWDYWGQGTLVTVSSGGGGSGGGGSGGGGSGGGGSDIQMTQSPSSLSASVGDRVTITCRASQDITNDLGWYQQKPGKAPKLLIYQASSLESGVPSRFSGSGSGTDFTLTISSLQPEDFATYYCQQSYTIPLTFGQGTKVEIK
B3: MAdCAM Antibody Table 1 Clone 47 (scFv)
scFv: EVQLLESGGGLVQPGGSLRLSCAASGFSFSDYGMHWVRQAPGKGLEWVSAISGSGGSTYYADSVKGRFTISRDNSKNTLYLQMNSLRAEDTAVYYCARDGGWQPAAILDYWGQGTLVTVSSGGGGSGGGGSGGGGSGGGGSDIQMTQSPSSLSASVGDRVTITCRASQGISNNLNWYQQKPGKAPKLLIYDASNLETGVPSRFSGSGSGTDFTLTISSLQPEDFATYYCQQSYSTPLTFGGGTKVEIK
B4: MAdCAM Antibody Table 1 Clone 50 (scFv)
scFv: QVQLVQSGAEVKKPGASVKVSCKASGYTFTSYDINWVRQAPGQGLEWMGWINPNSGTTGYAQKFQGRVTMTRDTSTSTVYMELSSLRSEDTAVYYCARSPYYYYGMDVWGQGTTVTVSSGGGGSGGGGSGGGGSGGGGSDIQMTQSPSSLSASVGDRVTITCRASHFISRWVAWYQQKPGKAPKLLIYAASTLQSGVPSRFSGSGSGTDFTLTISSLQPEDFATYYCQQSYSGISFGPGTKVDIK
B5: MAdCAM Antibody Table 1 Clone 48 (scFv)
scFv: EVQLLESGGGLVQPGGSLRLSCAASGFTFSDHGMHWVRQAPGKGLEWVSVIYGGESTYYADSVKGRFTISRDNSKNTLYLQMNSLRAEDTAVYYCARDPAVAGGGIFDYWGQGTLVTVSSGGGGSGGGGSGGGGSGGGGSDIQMTQSPSSLSASVGDRVTITCRASQGISNYLAWYQQKPGKAPKLLIYDASNLETGVPSRFSGSGSGTDFTLTISSLQPEDFATYYCQQSYSTCYTFGQGTKLEIK
B6: MAdCAM Antibody Table 1 Clone 55 (scFv)
scFv: QVQLVQSGAEVKKPGASVKVSCKASGYTFTSYYMHWVRQAPGQGLEWMGIIDPSGGSTSYAQKFQGRVTMTRDTSTSTVYMELSSLRSEDTAVYYCAREEWSSGGVGYFDYWGQGTLVTVSSGGGGSGGGGSGGGGSGGGGSDIQMTQSPSSLSASVGDRVTITCRASQGISSYLAWYQQKPGKAPKLLIYATSSLQTGVPSRFSGSGSGTDFTLTISSLQPEDFATYYCQQTYSIPITFGQGTRLEIK
B7: MAdCAM Antibody Table 1 Clone 56 (scFv)
scFv: EVQLLESGGGLVQPGGSLRLSCAASGFTFDDYAMHWVRQAPGKGLEWVSAISGGGEDTYYADSVKGRFTISRDNSKNTLYLQMNSLRAEDTAVYYCARDASYGGNYGMDVWGQGTTVTVSSGGGGSGGGGSGGGGSGGGGSDIQMTQSPSSLSASVGDRVTITCQASQDIRNYLNWYQQKPGKAPKLLIYKASSLESGVPSRFSGSGSGTDFTLTISSLQPEDFATYYCQQANSYPVTFGGGTKVEIK
B8: MAdCAM Antibody Table 1 Clone 51 (scFv)
scFv: EVQLLESGGGLVQPGGSLRLSCAASGFTFNNYGMNWVRQAPGKGLEWVSRINSDGSSTSYADSVKGRFTISRDNSKNTLYLQMNSLRAEDTAVYYCARGAYYYYYMDVWGQGTLVTVSSGGGGSGGGGSGGGGSGGGGSEIVMTQSPATLSVSPGERATLSCRASQSVSGSYLAWYQQKPGQAPRLLIYATSSRASGIPARFSGSGSGTEFTLTISSLQSEDFAVYYCQQYYSGLTFGQGTKVEIK
B9: MAdCAM Antibody Table 1 Clone 57 (scFv)
scFv: QVQLVQSGAEVKKPGASVKVSCKASGYTFTSYYMHWVRQAPGQGLEWMGIINPSGGSTSYAQKFQGRVTMTRDTSTSTVYMELSSLRSEDTAVYYCARDSVAGTGGRYYGMDVWGQGTLVTVSSGGGGSGGGGSGGGGSGGGGSDIQMTQSPSSLSASVGDRVTITCRASQGISNYFAWYQQKPGKAPKLLIYAASSLQGGVPSRFSGSGSGTDFTLTISSLQPEDFATYYCQQSYSLPYTFGQGTKLEIK
B10: MAdCAM Antibody Table 1 Clone 49 (scFv)
scFv: QVQLVQSGAEVKKPGASVKVSCKASGDTFTGYYIHWVRQAPGQGLEWMGWINPNSGGTNYAQKFQGRVTMTRDTSTSTVYMELSSLRSEDTAVYYCARSGLWLGSYYGMDVWGQGTLVTVSSGGGGSGGGGSGGGGSGGGGSDIQMTQSPSSLSASVGDRVTITCRASQTISIWLAWYQQKPGKAPKLLIYDASTLQSGVPSRFSGSGSGTDFTLTISSLQPEDFATYYCQQYSSYPLTFGQGTKVEIK
B11: MAdCAM Antibody Table 1 Clone 58 (scFv)
scFv: QVQLVQSGAEVKKPGASVKVSCKASGYTFTGYYMHWVRQAPGQGLEWMGIINPSGGNTKYAQKFQGRVTMTRDTSTSTVYMELSSLRSEDTAVYYCTTADYYYYMDVWGKGTTVTVSSGGGGSGGGGSGGGGSGGGGSDIQMTQSPSSLSASVGDRVTITCRASQGISNYLAWYQQKPGKAPKLLIYAASSLQSGVPSRFSGSGSGTDFTLTISSLQPEDFATYYCQQYYSNADFGQGTKVEIK
B12: MAdCAM Antibody Table 1 Clone 44 (scFv)
scFv: EVQLVESGGGLVKPGGSLRLSCAASGFTFSSYWMSWVRQAPGKGLEWVSAIGTGGGTYYAAPVKGRFTISRDDSKNTLYLQMNSLKTEDTAVYYCAREWLVPYYGMDVWGQGTTVTVSSGGGGSGGGGSGGGGSGGGGSDIQMTQSPSSLSASVGDRVTITCRASQSISRWLAWYQQKPGKAPKLLIYGASNLQSGVPSRFSGSGSGTDFTLTISSLQPEDFATYYCQQSYSTPWTFGQGTKVEIK
B13: MAdCAM Antibody Table 1 Clone 59 (scFv)
scFv: EVQLLESGGGLVQPGGSLRLSCAASGFTFSDFWMHWVRQAPGKGLEWISYISGDSGYTNYADSVKGRFTISRDNSKNTLYLQMNSLRAEDTAVYYCARDRPYYYYMDVWGKGTTVTVSSGGGGSGGGGSGGGGSGGGGSDIQMTQSPSSLSASVGDRVTITCRASQSVSRSLAWYQQKPGKAPKLLIYAASSLQSGVPSRFSGSGSGTDFTLTISSLQPEDFATYYCQQYKSYPVTFGQGTKVEIK
B14: MAdCAM Antibody Table 1 Clone 52 (scFv)
scFv: EVQLLESGGGLVQPGGSLRLSCAASGFTFSNSDMNWVRQAPGKGLEWVAHIWNDGSQKYYADSVKGRFTISRDNSKNTLYLQMNSLRAEDTAVYYCARDRTDPGYSSAMDVWGQGTTVTVSSGGGGSGGGGSGGGGSGGGGSDIQMTQSPSSLSASVGDRVTITCRASQDIRNYLGWYQQKPGKAPKLLIYDASSLETGVPSRFSGSGSGTDFTLTISSLQPEDFATYYCQQATSLPLTFGGGTKVEIK
B15: MAdCAM Antibody Table 1 Clone 45 (scFv)
scFv: EVQLLESGGGLVQPGGSLRLSCAASGFSVSSNYMSWVRQAPGKGLEWVAGISYDGSSKPYADSVKGRFTISRDNSKNTLYLQMNSLRAEDTAVYYCARSRGIAARPLQHWGQGTLVTVSSGGGGSGGGGSGGGGSGGGGSDIVMTQSPDSLAVSLGERATINCKSSQSVLYSSNNKNYLAWYQQKPGQPPKLLIYWASTRQSGVPDRFSGSGSGTDFTLTISSLQAEDVAVYYCHQYYGHPPTFGGGTKVEIK
B16: MAdCAM Antibody Table 1 Clone 46 (scFv)
scFv: B15 scFv with W196Q
B17: MAdCAM Antibody Table 1 Clone 54 (scFv)
scFv: EVQLLESGGGLVQPGGSLRLSCAASGFTFGDYAMSWVRQAPGKGLEWVAVVSYDGTNKYYADSVKGRFTISRDNSKNTLYLQMNSLRAEDTAVYYCAKDICSSTSCYFDLWGRGTLVTVSSGGGGSGGGGSGGGGSGGGGSDIQMTQSPSSLSASVGDRVTITCRASQNINNYVNWYQQKPGKAPKLLIYDASNLETGVPSRFSGSGSGTDFTLTISSLQPEDFATYYCQQANSFPPTFGQGTRLEIK

biological target: T1, human MAdCAM expressed on cells; experiment: cell binding

| binding result | Binder |
| --- | --- |
| binds | B1 |
| binds | B2 |
| binds | B3 |
| binds | B4 |
| binds | B5 |
| binds | B6 |
| binds | B7 |
| binds | B8 |
| binds | B9 |
| binds | B10 |
| binds | B11 |
| binds | B12 |
| binds | B13 |
| binds | B14 |
| binds | B15 |
| binds | B16 |
| binds | B17 |

biological target: T2, mouse MAdCAM expressed on cells; experiment: cell binding

| binding result | Binder |
| --- | --- |
| binds | B1 |
| no binding | B2 |
| no binding | B3 |
| no binding | B4 |
| no binding | B5 |
| no binding | B6 |
| no binding | B7 |
| no binding | B8 |
| no binding | B9 |
| no binding | B10 |
| no binding | B11 |
| no binding | B12 |
| binds | B13 |
| no binding | B14 |
| no binding | B15 |
| no binding | B16 |
| no binding | B17 |
